Data taken from patent publication US20260098059A1 (ENDOMET BIOSCIENCES, published 2026).
Values joined by “and” are separate entries in the source; they are usually repeats but may differ in a detail not shown here. Equal entries are not always repeated. [ ]: non-standard residue; d: D form. The star is where a group is joined. NMeW = CN[C@@H](Cc1c[nH]c2ccccc12)C(=O)O; Stearoyl = CCCCCCCCCCCCCCCCCC(=O)*; αMeV = CC(C)[C@](C)(N)C(=O)O; αMeS = C[C@](N)(CO)C(=O)O

T1: β-catenin (UniProt P35222 134-665, limits assumed, biotinylated in the SPR and plate assays)
T1 construct: also called beta catenin; biotinylated β-catenin
T1 sequence (looked up): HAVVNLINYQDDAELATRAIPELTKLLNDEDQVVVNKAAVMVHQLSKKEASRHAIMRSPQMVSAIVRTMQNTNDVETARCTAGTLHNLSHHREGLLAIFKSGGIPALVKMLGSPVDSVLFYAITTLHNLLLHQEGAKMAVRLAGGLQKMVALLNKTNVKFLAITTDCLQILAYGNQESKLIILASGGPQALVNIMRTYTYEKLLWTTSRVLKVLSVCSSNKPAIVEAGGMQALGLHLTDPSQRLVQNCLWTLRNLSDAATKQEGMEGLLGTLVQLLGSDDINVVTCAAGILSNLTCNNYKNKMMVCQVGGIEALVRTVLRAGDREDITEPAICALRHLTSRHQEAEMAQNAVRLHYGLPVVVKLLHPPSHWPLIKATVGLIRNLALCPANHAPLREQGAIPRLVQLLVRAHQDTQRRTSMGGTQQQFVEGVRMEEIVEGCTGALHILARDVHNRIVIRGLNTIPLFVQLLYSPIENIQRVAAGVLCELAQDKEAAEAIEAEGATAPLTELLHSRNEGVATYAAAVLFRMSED

T2: β-catenin in mouse endometriosis lesions (mouse, UniProt Q02248 2-781)
T2 construct: Endogenous protein in fixed tissue sections; also called cytoplasmic β-catenin
T2 sequence (looked up): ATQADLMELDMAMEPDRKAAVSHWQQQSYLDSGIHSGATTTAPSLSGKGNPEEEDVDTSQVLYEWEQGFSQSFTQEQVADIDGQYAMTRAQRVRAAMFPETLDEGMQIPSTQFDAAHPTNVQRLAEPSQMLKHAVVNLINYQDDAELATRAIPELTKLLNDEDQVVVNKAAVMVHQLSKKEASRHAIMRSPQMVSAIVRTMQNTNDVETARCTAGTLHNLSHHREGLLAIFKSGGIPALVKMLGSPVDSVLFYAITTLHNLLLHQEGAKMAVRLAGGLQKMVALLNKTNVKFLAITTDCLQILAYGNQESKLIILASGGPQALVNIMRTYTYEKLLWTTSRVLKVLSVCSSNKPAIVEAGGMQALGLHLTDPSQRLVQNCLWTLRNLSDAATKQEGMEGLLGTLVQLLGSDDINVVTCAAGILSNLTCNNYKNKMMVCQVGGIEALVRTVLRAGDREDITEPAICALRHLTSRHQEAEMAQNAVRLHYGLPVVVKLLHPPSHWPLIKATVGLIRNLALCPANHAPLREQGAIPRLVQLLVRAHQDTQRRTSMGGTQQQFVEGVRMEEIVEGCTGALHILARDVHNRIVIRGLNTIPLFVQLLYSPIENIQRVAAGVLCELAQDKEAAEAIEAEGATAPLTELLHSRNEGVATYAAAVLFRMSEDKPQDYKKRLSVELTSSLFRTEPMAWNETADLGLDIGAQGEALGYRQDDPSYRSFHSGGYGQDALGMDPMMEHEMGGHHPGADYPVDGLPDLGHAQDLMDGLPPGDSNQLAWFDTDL


Key:
[1] = target: T1, β-catenin; assay: competitive FP
Summary of the method: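 Competitive fluorescence polarization with inhibitor peptide serially diluted from 10 nM to 30 uM; polarization read at 470 nm excitation, 520 nm emission. Experiments performed three times.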

[2] = target: T1, β-catenin; assay: cell-based or functional assay
[3] = target: T1, β-catenin; assay: SPR (Biacore); SPR (Biacore), direct binding
Method: Biotinylated protein (beta catenin) was immobilized on a high-affinity streptavidin (SA) sensor chip (GE). Peptide at increasing concentrations was flowed over in HBS EP+ buffer at room temperature according to manufacturer's instructions. The maximum binding capacity of the surface (response at saturation) was calculated using the Biacore® system (GE) instructions and binding was measured at each concentration as a data point. The binding levels were determined over a range of analyte concentrations of at least from 20% to 80% saturation of the surface. On rates, off rates, and KD were calculated using Biacore® Insight Evaluation Software software (GE).

[4] = target: T2, β-catenin in mouse endometriosis lesions; assay: immunofluorescence co-localisation in mouse lesions
Method: Endometriosis was established in a mouse model of disease. Mice were allowed to establish endometriosis for 3 weeks. […] To assess the localization of the peptides and β-catenin, lesions from the endometriosis mouse model were assessed. On the last day of treatment, in order to visualize the peptide localization to the lesion(s), mice were dosed with a biotinylated tagged peptide therapeutic or control. Mice were euthanized, lesions were removed, and fixed in formalin for histology and immunohistochemistry. […] Immunohistochemical negative controls were performed on lesion sections from all treatment groups using IgG non-specific antibodies (Rabbit-IgG, AbCam 1:100).

Kd [1] [µM] | Wnt Reporter EC50 [2] | Kd [3] [µM] | Proliferation IC50, Endo cells [2] [µM] | Proliferation IC50, Wnt dependent cells [2] [µM] | binding result [4] | Binder
> 30 | > 30 µM | 0.048 | – | – | – | KWAQSILNQHVQRVWG (HELM PEPTIDE1{K.W.[meA].Q.S.I.L.N.Q.H.V.Q.R.V.W.G}$PEPTIDE1,PEPTIDE1,1:R3-16:R2$$$V2.0; SMILES CC[C@H](C)[C@@H]1NC(=O)[C@H](CO)NC(=O)[C@H](CCC(N)=O)NC(=O)[C@H](C)N(C)C(=O)[C@H](Cc2c[nH]c3ccccc23)NC(=O)[C@@H](N)CCCCNC(=O)CNC(=O)[C@H](Cc2c[nH]c3ccccc23)NC(=O)[C@H](C(C)C)NC(=O)[C@H](CCCNC(=N)N)NC(=O)[C@H](CCC(N)=O)NC(=O)[C@H](C(C)C)NC(=O)[C@H](Cc2c[nH]cn2)NC(=O)[C@H](CCC(N)=O)NC(=O)[C@H](CC(N)=O)NC(=O)[C@H](CC(C)C)NC1=O) [SEQ ID NO: 20]
> 30 | > 30 µM | 0.337 | – | – | – | KMIRMWFLISFWG (cyclo-H2N-K(Aoc*)MIRM-NmeW-FLISFWG*) [SEQ ID NO: 21]
– | ≤ 7.5 µM | – | 5 | 1.7 | binds | Stearoyl-W[NMeW]E[αMeS]ILDEH[αMeV]QRVW-OH (393 used) [Peptide 4 (SEQ ID NO: 393/500)]
> 30 | ≤ 7.5 µM | 0.25 | – | – | – | H-MSRMWFLISFWMG-OH [SEQ ID NO: 14]
> 30 | > 15 µM and ≤ 22.5 µM | 0.12 | – | – | – | MSRMWFLISFWAG (HELM PEPTIDE1{M.S.R.M.W.F.L.I.S.F.W.[meA].G}$$$$V2.0; SMILES CC[C@H](C)[C@H](NC(=O)[C@H](CC(C)C)NC(=O)[C@H](Cc1ccccc1)NC(=O)[C@H](Cc1c[nH]c2ccccc12)NC(=O)[C@H](CCSC)NC(=O)[C@H](CCCNC(=N)N)NC(=O)[C@H](CO)NC(=O)[C@@H](N)CCSC)C(=O)N[C@@H](CO)C(=O)N[C@@H](Cc1ccccc1)C(=O)N[C@@H](Cc1c[nH]c2ccccc12)C(=O)N(C)[C@@H](C)C(=O)NCC(=O)O) [SEQ ID NO: 16]
> 30 | > 30 µM | 0.076 | – | – | – | KAESILDEHVQRVWG (HELM PEPTIDE1{K.[meA].E.S.I.L.D.E.H.V.Q.R.V.W.G}$PEPTIDE1,PEPTIDE1,1:R3-15:R2$$$V2.0; SMILES CC[C@H](C)[C@@H]1NC(=O)[C@H](CO)NC(=O)[C@H](CCC(=O)O)NC(=O)[C@H](C)N(C)C(=O)[C@@H](N)CCCCNC(=O)CNC(=O)[C@H](Cc2c[nH]c3ccccc23)NC(=O)[C@H](C(C)C)NC(=O)[C@H](CCCNC(=N)N)NC(=O)[C@H](CCC(N)=O)NC(=O)[C@H](C(C)C)NC(=O)[C@H](Cc2c[nH]cn2)NC(=O)[C@H](CCC(=O)O)NC(=O)[C@H](CC(=O)O)NC(=O)[C@H](CC(C)C)NC1=O) [SEQ ID NO: 18]
> 30 | > 30 µM | 0.059 | – | – | – | KAQSILDEHVQRVWG (HELM PEPTIDE1{K.[meA].Q.S.I.L.D.E.H.V.Q.R.V.W.G}$PEPTIDE1,PEPTIDE1,1:R3-15:R2$$$V2.0; SMILES CC[C@H](C)[C@@H]1NC(=O)[C@H](CO)NC(=O)[C@H](CCC(N)=O)NC(=O)[C@H](C)N(C)C(=O)[C@@H](N)CCCCNC(=O)CNC(=O)[C@H](Cc2c[nH]c3ccccc23)NC(=O)[C@H](C(C)C)NC(=O)[C@H](CCCNC(=N)N)NC(=O)[C@H](CCC(N)=O)NC(=O)[C@H](C(C)C)NC(=O)[C@H](Cc2c[nH]cn2)NC(=O)[C@H](CCC(=O)O)NC(=O)[C@H](CC(=O)O)NC(=O)[C@H](CC(C)C)NC1=O) [SEQ ID NO: 19]
> 30 | – | 0.546 | – | – | – | NPDGLSQEQLEHRERSLQTLRDIQRMLFPDEKEFTAAK (HELM PEPTIDE1{[ac].N.P.D.G.L.S.Q.E.Q.L.E.H.R.E.R.S.L.Q.T.L.R.D.I.Q.R.M.L.F.P.D.E.K.E.F.T.[bAla].[bAla].K.[am]}$$$$V2.0; SMILES CC[C@H](C)[C@H](NC(=O)[C@H](CC(=O)O)NC(=O)[C@H](CCCNC(=N)N)NC(=O)[C@H](CC(C)C)NC(=O)[C@@H](NC(=O)[C@H](CCC(N)=O)NC(=O)[C@H](CC(C)C)NC(=O)[C@H](CO)NC(=O)[C@H](CCCNC(=N)N)NC(=O)[C@H](CCC(=O)O)NC(=O)[C@H](CCCNC(=N)N)NC(=O)[C@H](Cc1c[nH]cn1)NC(=O)[C@H](CCC(=O)O)NC(=O)[C@H](CC(C)C)NC(=O)[C@H](CCC(N)=O)NC(=O)[C@H](CCC(=O)O)NC(=O)[C@H](CCC(N)=O)NC(=O)[C@H](CO)NC(=O)[C@H](CC(C)C)NC(=O)CNC(=O)[C@H](CC(=O)O)NC(=O)[C@@H]1CCCN1C(=O)[C@H](CC(N)=O)NC(C)=O)[C@@H](C)O)C(=O)N[C@@H](CCC(N)=O)C(=O)N[C@@H](CCCNC(=N)N)C(=O)N[C@@H](CCSC)C(=O)N[C@@H](CC(C)C)C(=O)N[C@@H](Cc1ccccc1)C(=O)N1CCC[C@H]1C(=O)N[C@@H](CC(=O)O)C(=O)N[C@@H](CCC(=O)O)C(=O)N[C@@H](CCCCN)C(=O)N[C@@H](CCC(=O)O)C(=O)N[C@@H](Cc1ccccc1)C(=O)N[C@H](C(=O)NCCC(=O)NCCC(=O)N[C@@H](CCCCN)C(N)=O)[C@@H](C)O, Bcl9 residues 347-381, acetylated, with beta-Ala-beta-Ala-K added, amidated) [SEQ ID NO: 270 (Ac-Bcl9(347-381)-AβAβK-CONH2)]
